Laboratory results reported in patent US20130225478A1 (YEDA RESEARCH AND DEVELOPMENT, published 2013).
Blank lines part the entries; values can stand above or below the binder they belong to. Ends that are not written are not given here.

Assays:
mTLR1 TM N′ = target: T1, mTLR1 TM N′ (mouse, N-terminal fluorescein (FRET donor) or N-terminal rhodamine (TAMRA) label, depending on the assay; synthesized on Rink amide MBHA resin); test: FRET in PC:Cholesterol LUVs, fluorescein-mTLR1 TM N′ donor, rhodamine-Cp acceptor (FIG. 3A)
T1 construct: Synthetic peptide; Tested in PC:Cholesterol LUVs or HEPES buffer; also called mTLR1 N′ TM; TLR1 TM N-terminus peptide
T1 peptide: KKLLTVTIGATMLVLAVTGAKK
Description: FIGS. 3A-3C show FRET between mTLR1 TM N′ (SEQ ID NO:77) and other TM peptides. mTLR1 TM N′ peptide labeled with fluorescein (donor) and loaded on PC:Cholesterol LUVs. Changes in the intensity of the emission signal were monitored between 500 to 600 nm, upon the addition of successive amounts of rhodamine labeled mTLR1 TM N′ (SEQ ID NO:77; homodimers, 3B) and mTLR2 TM N′-CtoA (SEQ ID NO:88; heterodimers, 3C). Rhodamine labeled TCRα TM domain peptide (Cp; […]-NH2, SEQ ID NO:123) was used as a negative control (3A).
(§1) Large unilamellar vesicles (LUVs) composed of phosphatidylcholine (PC) and cholesterol (10:1, w/w), were prepared using the extrusion method as described previously (Cohen et al, 2008). The fluorescence experiments were performed with pairs of peptides using fluorescein labeled peptides as donors and rhodamine labeled peptides as acceptors. Fluorescence spectra were obtained at room temperature, with excitation set at 494 nm (10 nm slit) and emission scan at 500-600 nm (10 nm slits), by a Cary eclipse fluorescence spectrophotometer (Varian Inc., Palo Alto, Calif.). […] Fluorescence spectra were obtained before and after the addition of the rhodamine labeled peptides. Fluorescence values were corrected by subtracting the changes in emission obtained by adding HEPES only. […]

mTLR1 TM C′-CtoA = target: T2, mTLR1 TM C′-CtoA (mouse, N-terminal fluorescein (FRET donor) or N-terminal rhodamine (TAMRA) label, depending on the assay; synthesized on Rink amide MBHA resin); test: FRET in PC:Cholesterol LUVs, fluorescein-mTLR1 TM C′-CtoA donor, rhodamine-Cp acceptor (FIG. 2A)
T2 construct: Synthetic peptide; Tested in PC:Cholesterol LUVs or HEPES buffer; also called mTLR1 C′ TM (C to A); TLR1 TM C-terminus peptide
T2 peptide: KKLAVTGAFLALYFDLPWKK
Description: FIGS. 2A-2C show fluorescence resonance energy transfer (FRET) between mTLR1 TM C′-CtoA (SEQ ID NO:83) and other TM peptides. mTLR1 TM C′ peptide was labeled with fluorescein (Donor) and loaded on PC:Cholesterol large unilamellar vesicles (LUVs). Changes in the intensity of the emission signal were monitored between 500 to 600 nm, upon the addition of successive amounts of rhodamine labeled mTLR1 TM C′-CtoA (SEQ ID NO:83; homodimers, 2B) and mTLR2 TM C′-CtoA (SEQ ID NO:86; heterodimers, 2C). Rhodamine labeled TCRα TM domain peptide (Cp; […]-NH2, SEQ ID NO:123) was used as a negative control (2A).
as §1

[1] = target: the molecule itself; test: self-assembly assay, rhodamine dequenching after proteinase K, PC:Cholesterol LUVs (FIG. 7D)
Method: (7A-7B) Rhodamine conjugated TLR peptides mTLR2 TM N′-CtoA (SEQ ID NO:88), mTLR2 TM C′-CtoA (SEQ ID NO:86), mTLR1 TM N′ (SEQ ID NO:77) and mTLR1 TM C′-CtoA (SEQ ID NO:83), were added to HEPES solution and their emission at 585 nm was recorded before and after the addition of proteinase K. The addition of the proteinase K is indicated by a black arrow. mTLR1 TM C′-CtoA (SEQ ID NO:83), mTLR1 TM N′ (SEQ ID NO:77) and mTLR2 TM C′-CtoA (SEQ ID NO:86) are capable to self assemble in solution, to a very slight extent (7A). mTLR2 TM N′-CtoA (SEQ ID NO:88) highly oligomerise in solution (black line, 7B) and is partially dissociated in the presence of LUVs (gray line, 7B). […] LL37 is shown as an example for a peptide that is highly oligomerised in liposomes (7D).
We have tested this characteristic, both in solution and on a membrane interface. We measured the initial emission of rhodamine labeled peptides at 580 nm in solution only, or in a solution containing PC:Cholesterol LUVs, and then followed the increase of the emission over time after the addition of protease-K to the medium. […] The known oligomeric antimicrobial peptide LL37 (Rosenfeld et al., 2006a) was used as a positive control.

- binding result (mTLR1 TM N′): no binding
- binding result (mTLR1 TM C′-CtoA): no binding
B1: Cp, the core TM peptide of TCRα (peptide)
peptide: GLRILLLKV-NH2
modifications: also: rhodamine label
notes: Negative control in the FRET experiments; also called TCRα TM domain peptide

B2: LL37 (peptide, UniProt P49913 134-170, looked up)
peptide: LLGDFFRKSKEKIGKEFKRIVQRIKDFLRNLVPRTES
modifications: also: rhodamine label
notes: Positive control of the self-assembly assay; LL-37 is the C-terminal 37 residues of the cathelicidin precursor; also called oligomeric antimicrobial peptide LL37
- binding result [1]: binds
